Article PMC3017026

Target: recombinant human α-synuclein (human) (UniProt P37840)

EC50 of the loss of synaptophysin (ELISA) in mouse cortical neurons incubated 24 hours with αSN premixed with Aβ1-42 (1:50); αSN alone 500 nM: 25 nM
Substance: amyloid-β 1-42 synthetic peptide
